In a protein production outcome set (Wang et al. 2014):

Test: label from the status in PepcDB records

Sequence | protein production
MQRPHVQEAEATAAPQQRTGASATFAELLKRVKAEGLLDLDPRYYIGRLALNTTLLLVGFAAFFALGDSWWQLVVALWMGLCGGQSAFMWHDAGHKAMFRSKKAASAVGYFHANLVNGVSFGWWVNHHNRHHSNPNHLDMDPDIGRRTAIFDIKQYPTRRGTQKFIVRYQSVLFFALLVTESFKMLKTAVLSIAQGKTKRPVLESFLLLARAAVYLTLVFTVLSPVLAVAFVLVQQAALGVYFGMIFAPNHKGMEVRDGDEETLDWLERQVLTSRNIRPSLFIDFLYGGLNYQVEHHLFPAMPQKNLARARELTRAYCAERGVPYHEVGFWASYREVASFLHEVSAPVRRGDVEEQIRRQAGQAA | failed
MAKSWCTVLERPATRAARSLAIKRSEKGEMLVSGLPYLSAVDDVTLMLRDGDLMGSFVVEGINAETVDSFHTVELCNAFSRFIAQQRSDVAYYVHRISVETRPTMPPVGGHPFNEEIDRRWQGYLQTVGLRDRVTVVTLVIRPPRKTTKFLSLFGGRDVHSRHEVEARALRLDQMINTCMVGVGEAGPSRLTVSDGRWLGLLRTLIDGSGGSLIPGTKFLPVADLLASSQITFQGPVFECEGTDPARRRFGTIVSVKDYPAETYPGILDRLNLPYNTVVTQSFTPIDPISAQGKIARVRKQMRAAEDAAISLMAQLEEAEDDVASGRVIFGDHHCSVAVFCDSLKELDGAMAYVTRAMQDAGAAIVRENFSSRVVYFAQHPGNFAYRTRPAMISSQNFAQLCAMHGQSKGSPPDKCPWGDAVTIFPTARGETFRFNFHLPGKPGQRTVGHTLVLGQTGSGKTLGTAFLISQAQRLGARTILFDKDNGFEMAVRAMGGCYSAVRMGDETGFNPMRAEADSRGAAWLMDWLAALAENDGGKLNPVQIQALSDAVQANTTADPRLQNLEQFRSQLRATDDDGDLYNRLGRWDETGQFGWLFGGKGLDPLAFDNRLTAFDLTEIFDNDVVRTAWLSYVFRRVERLVEDEHPTLLVLDEAWKLLDNPYFEARLKDWMLTMRKKNVAVVLLTQRVSHIKNSAAGDAILESAVTRLVYTSSFNTAAELAPLHLTPTESAFLQMSNVDNHLVLLKSGSDSVVLDFDLVAIGKGIDVLGGGRGQKAIAGWRDRPDFQMEMLHLEHHHHHH | failed
MNRVYVGTVSAVTDIGVFVNLNKRLRGLIHRRNLGNNRFSEDEEILVQVSGIGLSGEIDLKPVKMDGYKVVEISKEVGRVEIAELENLEHHHHHH | failed
MKQAIGFIDSGVGGLTVVREVLKQLPHEQVYYLGDTARCPYGPRDKEEVAKFTWEMTNFLVDRGIKMLVIACNTATAAALYDIREKLDIPVIGVIQPGSRAALKATRNNKIGVLGTLGTVESMAYPTALKGLNRRVEVDSLACPKFVSVVESGEYKSAIAKKVVAESLLPLKSTKIDTVILGCTHYPLLKPIIENFMGDGVAVINSGEETASEVSALLDYHNLLDATDEEIEHRFFTTGSTQIFKDIAKDWLNMPDMTVEHIKLGK | not failed
VEASFCLGDNWQFLYVNDATCRMTEYSREQLLSMNLQDIDVDFALHDWEEIRQKNNYTFKTRYRSQSGRIFLVEMSLTFLEDQERRFSCVFVREKS | failed
MNEQPAACRIKVEALGAGFAPAAEQWAERLGLALQVDEAEFALQVGEQGLQLQQLGPDAPGPVRVDFVEGGAAHRRLYGGGSGQMIAKAVGVAQGVRPRVLDATAGLGKDGFVLATLGCEMSLIERQPLIGALLEDGLARAAQDAEVGPIVARMHLLKGNSIELMRNWQGEPPQVIYLDPMFPHREKSALVKKEMRLFRPLVGDDNDAPALLAAALALASHRVVVKRPRKAPCIEGPKPSHGLEGKSSRYDIYPKKALKALEHHHHHH | failed
QLQDGKGEKVMVEYSSPNTNKPLHLGHLRNNFLGYSISQILKANGFDVIKANLVNDRGIHICKSMIAYQKSGLGETPVSTGMKGDHLVGKYYVAFDKQLKKEVEALVAAGVEEDKAKKEAPILKEAQAMLLKWEQGDKEVYDLWKTMNGWVYDGFNASYKKIGVTFDHFYYESNTYLLGKDIVEEGLAKGVFNKRADGSVWIDLTAEGLDEKLVLRSDGTSVYITQDLGTAELKYKDFGCKRSVYVVGNEQDYHFIVLIHILKKLGKPYANGVYHMSYGMVDLPSGKMKSREGTVVDADDLVDEMIATAKERTLEQGKTDGFSEEQATHLYETLGLGALKYFLLKVDPKKRMMFNPEESIDFQ | failed
MSDHKAVHSVQAKAEGKTLVMERSFEAPRELVFKAFSGSVHLESWWGPKGWQTANSRFEFQPDGVWLYCMECRDQNQGEFYGRKSCGKAVFQEIAAPEKIVYTDMFTDEEGNVVPGMPEILNEVYFQERDVGTKLITRSHFSSPKELQQLLDKGMVEGFSSQLERLEDYLKAIR | failed
MVDIHSHIIPGIDDGSNSLETTLKMMEIANEAGLTKMVATSHYFRGRFENSISAITSEAEKLNSIFKKKAVDIEVIPGQEVFIDNHTLEAHKNGIIGCIRDTNYMLVEFDMMSLLENAADILYEIQIRGIKPIIAHPERYTYIQRDLYKINDLIDENIYFQVNAGSIEGLFGKTVQKTAIKLIEEGLVSFIASDAHSAGKRCPGYEGALKLVAKIDSVLPGKFVKNADLLIENQEIKARSQKLKRKKGFFTFFK | failed
MGHHHHHHSHMDALSPSPAIPSNTDYPGPHSFDVSFQQSSTAKSATWTYSTELKKLYCQIAKTCPIQIKVMTPPPQGAVIRAMPVYKKAEHVTEVVKRCPNHELSREFNEGQIAPPSHLIRVEGNSHAQYVEDPITGRQSVLVPYEPPQVGTEFTTVLYNFMCNSSCVGGMNRRPILIIVTLETRDGQVLGRRCFEARICACPGRDRKADEDSIRKQQVSDSTKNGDGTKRPFRQNTHGIQM | failed
MPGFEVLYQAAALCLTYPDDDFRARLPLLREAAPQLRGFTDHAAATGQGELQAHYVEVFDFRNRHSLYLSWWTDGDTRNRGMSLVRFKELYRAHGLEFTGEELPDFLPAVLEFVSRTGDMGMLTEHRDALDQLRARLTAFGTPYACVLDAVCATLPPAPTGARR | failed
MTRAPPRRCTSPMTPTAPSPLVWRDDGLPQSSLYGDVYFSSVDGLAETRAVFLAGCGLPERFAERRDFVVGELGFGSGLNIAALLDLWRREKPPGGRLHIFSIEAHPLSRDEAARILAHWPELGEAAQVLLDHWPGRARGFHRVDLPGFDAVLDLAVMDVVEALEAWDGLADAWFLDGFSPALNPAMWRDEVLAAVGARSAPGARAATFTVAGAVRRGLSAAGFEIAKRPGFGRKRERLEAWRPGVRPVAQRPETLAIIGGGIAGAALARAARAAGLEVTVIDDADAVAASGNPAALVTPALDAGGGPRAALYAQALSRAVTLYEAQPDAVLAREVLQLAAGERDPARFATVADQDLFEPGDMRTLEAEDTRARLETPTPALAMAGARVIAPAEVTAAWAGPVVRRRVAKAERDGEGWRLLDAAGEIIARADRLALAGGAAGADLLAEAPLRPVRGQASWTRGHGAPATAFGGYAIPTREGLLFGATHDRDDTQTNVRSEDHARNLATLAKGLPALAARLAGSTFEGRAAIRATTPDRLPLADLREDGVIVLTGLGSRGFCLAPLLAEHLVARLLDVPSPLPRQLSHLLKLTRFDSPVTRSRL | failed
MKIRILGSGTSTGVPEIGCTCAVCTSKDPRDCRLRTSALVYTDDATILLDCGPDFREQMLRVPFGKIDAVLISHEHYDHVGGLDDLRPFCRFGEVPIYAETYTAERLRSRMPYCFVEHSYPGVPNIPLREIEPNRPFLVNHTEVLPLRVMHGKLPILGYRIGKLGYITDMLTMPDESFEQLQGIEVLVMNALRIAPHNTHQSLSEALEAVKRIGAKETWLIHMSHHIGLQADVEKQLPPHVHFAFDGLELECLEHHHHHH | failed
MKLYQHIETLWDYMQLKQDLKPADCLFVMCSNDVRVAEHAAALYHQKLAPLIVFSGGEGRFTDGLFEKSEAETFADIARLAGVPSDAILVETRSTNSGENVRFTEQLLKEKGIQCESIILVQKPFMERRAIATFEKQWQSPYSQVQVSSTAHPFFEYINEDMPLMMVLEALMEDFSRVKSYPEKGFQTKQDIPNQVDSSYQVLLERFGFDLVLEHHHHHH | failed
MAEHIITLVLSGERLDVTTSTPFVVALRDLLYEGDWELLKEDMKKKENIMKEVQTCEKLEKVVHLDETVYEPLIFPEFQEWLREENITPKDFKNVSLKGLYDLALEYADRNLYDIAHDIIKFMLDIDENYAPAYELKGSLLVEQGKIEEGIKFLDKAVEIDPWLVQAYASLGEAYYNLGDYEKAIHYWERELEYNPNDKITYFMITEAYYEMNRKDLAVKTLERLLEIDPDNIPALYQLSQLYRELGNEEKAREMEEKIMNCKPKYPTELEPWARVMLKHGRYKEVAEELEKIVESSPLNTLARLLLVVPYVKLGQIDKAREILDDIGQSNFWYYYGKKEILDELLTEEEKRACGIS | failed
MQRIRIIDSHTGGEPTRLVIGGFPDLGQGDMAERRRLLGERHDAWRAACILEPRGSDVLVGALLCAPVDPEACAGVIFFNNSGYLGMCGHGTIGLVASLAHLGRIGPGVHRIETPVGEVEATLHEDGSVSVRNVPAYRYRRQVSVEVPGIGRVSGDIAWGGNWFFLVAGHGQRLAGDNLDALTAYTVAVQQALDDQDIRGEDGGAIDHIELFADDPHADSRNFVLCPGKAYDRSPCGTGTSAKLACLAADGKLLPGQPWRQASVIGSQFEGRYEWLDGQPGGPIVPTIRGRAHVSAEATLLLADDDPFAWGIRR | not failed
MRIIKNIILISLLFAIILVSLFFGEKWVRTNVKNQAIVYNSQLNPTVMISGSSANNHRFDNLVAILNRQSTTHSLLRVQVNEDNSISYSGRIRPNDSQPYIVIGFQNNSDGYANIKRQAKWLEIAMKFLQKRYHFNHFNAFGHSNGGLDWTIYLEKYFNQKSSTIGTLMTVGSPFNFSEKSESNRTQMLTDLIKNRSKLPRDMTVYSIAGTETYNDDGIVPIESVLSGKYVFQKNVHSYTQITVSGNDSEHSDLPTNPQIVQLIQRDILDGRGQKQSSNPVFNNH | failed
MSTKTGNYISIAIFAFFGGIARAWLNSSFGFYGTFWGNIIGCFLLAFFTYLFMEFKDVRQWLTVGLGTGFVGAFTTFSTFNLDVLKNIQANVPITALIYFLSSIIFGFCFAYLGMNAGKQVGNLLRKED | failed
MNASAVETIYESTEDKAALTSVVDLVKLSDQYRQSAILHYAVADKLFDLTQTGRTPAEVAASFGMVEGKAAILLHALAALGLLTKEGDAFRNTALTERYLTTTSADYIGPIVEHQYLQWDNWPRLGEILRSEKPLAFQQESRFAHDTRARDAFNDAMVRLSQPMVDVVSELGVFARARTVIDLAGGHGTYLAQVLRRHPQLTGQIWDLPTTRDAARKTIHAHDLGGRVEFFEKNLLDARNFEGGAADVVMLNDCLHYFDAREAREVIGHAAGLVKPGGALLILTMTMNDDRVTPALSADFSLHMMVNTNHGELHPTPWIAGVVRDAGLAVGERSIGRYTLLIGQRSSGEV | not failed
MGTDTAQARPTDEAAERRREQRGWYFYDWACSVYSTSVLTVFLGPYLTSVAKSAADADGYVHPLGVPVRAGSFFAYSVSLSVIVAVVVMPLVGAAADRTGRKKPLLAVTAYVGAAATAGMFFLDGDRYLLGGVLLLVANAAQAVSMMLYNSYLPQIAPPEERDAVSSRGWAFGYAAGALVLIANLVLFLAHDSFGVSESTAVRICLASAGLWWGAFTLIPLKRLRDRGSPVKEITAPGPRRLAATVRDMRRHPLTLSFLLAYLIYNDGIQTVISQASVYGSEELGLSQSTLIVAVLLVQVLAVGGALGMGRLARTYGARRTILGSLVAWTVTLGAGYFLPAGAPFWFFVLASGIGLVLGGSQALSRSLFSHLVPAGKEAEYFSAYEMSDRGMSWLGPLLFGLTYQLTGSYRDAIISLVAFFVVGFVLLARVPVRQAVRDAGNSVPERI | failed
VEPQSQALLHAQPIISIRVWGVGRDSGRERDFAYVARDKLTQMLKCHVFRCEAPAKNIATSLHEICSKIMAERRNARCLVNGLSLDHSKLVDVPFQVEFPAPKNELVQKFQVYYLGNVPVAKPVGVDVINGALESVLSSSSREQWTPSHVSVAPATLTILHQQTEAVLGECRVRFLSFLAVGRDVHTFAFIMAAGPASFCCHMFWCEPNAASLSEAVQAACMLRYQKCLDARSQASTSCLPAPPAESVARRVGWTVRRGVQSLWGSLKPKRLGAHTP | failed
